Numbering of substitutions follows the chain as printed. Several values for one entry are separate records, joined by “and”; a condition that tells them apart may be missing. Equal values may be shown once. Each block holds one binder with its values, some of them ahead of it.
Assays:
human CD37 [1] = target: T1, human CD37 (human, UniProt P11049 1-278); assay: flow cytometry titration on BJAB cells (FIG. 20A); apparent Kd
T1 construct: Tetraspanin antigen; Expressed on 300-19 cells transfected with pSRa-CD37 (entire CDS) or endogenous on WSU-DLCL-2, BJAB and Ramos lymphoma cells; also called CD37 antigen; human CD37 wildtype
T1 sequence: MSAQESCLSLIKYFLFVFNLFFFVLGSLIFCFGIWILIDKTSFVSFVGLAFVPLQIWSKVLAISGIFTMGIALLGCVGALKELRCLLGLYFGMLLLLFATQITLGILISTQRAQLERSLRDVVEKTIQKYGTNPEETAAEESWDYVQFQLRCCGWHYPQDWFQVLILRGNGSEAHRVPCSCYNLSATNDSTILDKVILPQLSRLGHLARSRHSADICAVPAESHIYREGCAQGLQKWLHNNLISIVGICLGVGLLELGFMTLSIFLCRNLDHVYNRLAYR

human CD37 [2] = target: T1, human CD37; assay: cell-based or functional assay
human CD37 [3] = target: T1, human CD37; assay: flow cytometry titration on BJAB cells; apparent Kd
Description: (§1) Binding specificity was tested by flow cytometry using purified antibodies. […] All murine antibodies were incubated for 3 h with either CD37-expressing 300-19 cells or the non-transfected 300-19 cells (1×10⁵ cells per sample) in 100 μL FACS buffer (RPMI-1640 medium supplemented with 2% normal goat serum). Then, the cells were pelleted, washed, and incubated for 1 h with 100 μL of FITC-conjugated goat anti-mouse IgG-antibody (Jackson Laboratory, 6 μg/mL in FACS buffer). The cells were pelleted again, washed with FACS buffer and resuspended in 200 μL of PBS containing 1% formaldehyde. Samples were acquired using a FACSCalibur flow cytometer with the HTS multiwell sampler or a FACS array flow cytometer and analyzed using CellQuest Pro (all from BD Biosciences, San Diego, US).
The humanized antibodies huCD37-38, huCD37-50, huCD37-51, huCD37-56 and chCD37-57 were assayed for their binding affinity to BJAB cells in comparison to their murine counterparts. Flow cytometry binding assays were carried out using secondary FITC-conjugated goat-anti-murine and -anti-human antibodies, analyzed as described in Example 2 and dose-response curves were generated by non-linear regression for each antibody. The value for the apparent dissociation constant (Kd) of each antibody was calculated using GraphPad Prism v4 (GraphPad software, San Diego, Calif.).

macaque CD37 = target: T2, macaque CD37 (macaque, UniProt P11049 1-277 (human entry)); assay: flow cytometry, 300-19/CD37mac cells
T2 construct: Expressed on 300-19 cells transfected with pSRa-CD37mac (300-19/CD37mac cells); also called macaca CD37; macaque derived CD37 antigen
T2 chain: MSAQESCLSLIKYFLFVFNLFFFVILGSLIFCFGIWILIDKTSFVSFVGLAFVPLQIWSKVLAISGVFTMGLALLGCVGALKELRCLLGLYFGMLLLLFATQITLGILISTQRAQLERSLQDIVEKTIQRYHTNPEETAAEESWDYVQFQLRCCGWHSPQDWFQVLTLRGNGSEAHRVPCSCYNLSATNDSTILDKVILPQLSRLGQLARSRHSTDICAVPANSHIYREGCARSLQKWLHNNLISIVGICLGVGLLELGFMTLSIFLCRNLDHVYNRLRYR
Description: as §1
The murine antibodies muCD37-3, muCD37-12, muCD37-38, […], muCD37-51, muCD37-56 and muCD37-57 were assayed for their ability to bind to 300-19/CD37mac cells expressing macaque CD37. Flow cytometry binding assays were carried out using secondary FITC-conjugated goat-anti-murine or goat-anti-human antibodies, analyzed as described in Example 2. Binding was compared to the previously described anti-CD37 antibody WR17 and the anti-CD37 SMIP TRU-016. […] In contrast, muCD37-3, muCD37-12, the previously described anti-CD37 antibody WR17 and the anti-CD37 SMIP TRU-016 are unable to bind the macaque derived CD37 antigen.

human CD37 [4] = target: T1, human CD37; assay: flow cytometry titration; apparent Kd; cells not named
human CD37 [5] = target: T1, human CD37; assay: competition flow cytometry on BJAB cells; competitor PE-labeled muCD37-3 (1 nM)
Description: Flow cytometry binding assays using BJAB cells and a competitive binding format were used to evaluate binding affinity of chimeric and humanized versions of CD37-3. BJAB cells were incubated with a 1 nM concentration of PE-labeled muCD37-3 antibody and competition was measured by adding varying amounts of muCD37-3, chCD37-3, huCD37-3v1.0 or huCD37-3v1.01. The samples were incubated for 3 hrs at 4° C. Then, the cells were pelleted, washed with FACS buffer and resuspended in 200 μL of PBS containing 1% formaldehyde. Samples were acquired using a FACSCalibur flow cytometer with the HTS multiwell sampler and analyzed using CellQuest Pro (all from BD Biosciences, San Diego, US). The resulting mean PE fluorescence was plotted against the amount of competing antibody used in a semi-log plot. FIG. 9B depicts the dose-response curves generated by non-linear regression for each antibody. The value for the apparent dissociation constant (Kd) of each antibody was calculated using GraphPad Prism v4 (GraphPad software, San Diego, Calif.).

hCD37-M1 = target: T3, hCD37-M1 (human/murine chimera, UniProt P11049 1-281); assay: flow cytometry, 300-19 cells expressing hCD37-M1, 1.5 µg/mL antibody
T3 construct: stably expressed on 300-19 cells; also called hCD37-M1 variant
T3 chain: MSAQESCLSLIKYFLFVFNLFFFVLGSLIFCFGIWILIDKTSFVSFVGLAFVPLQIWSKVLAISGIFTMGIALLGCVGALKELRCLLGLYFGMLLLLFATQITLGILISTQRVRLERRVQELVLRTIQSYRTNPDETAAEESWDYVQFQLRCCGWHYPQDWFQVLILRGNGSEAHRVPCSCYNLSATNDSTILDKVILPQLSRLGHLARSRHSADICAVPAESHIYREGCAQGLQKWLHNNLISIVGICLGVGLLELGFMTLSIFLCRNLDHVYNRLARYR
Description: as §1
(§2) Binding of various CD37 antibodies to cells expressing human CD37 wildtype and variants was analyzed by flow cytometry using 1.5 μg/mL of each antibody. The isolated antibodies of this invention were compared to commercially available CD37 antibody WR17, as well as the TRU-016 SMIP. […] Likewise, all antibodies tested bound the hCD37-M3 variant (FIG. 18B). In contrast, the isolated antibodies of this invention bound the hCD37-M1 variant, while TRU-016 and WR17 were unable to bind hCD37-M1 variant (FIG. 19A). The CD37-50 and CD37-51 antibodies and TRU-016 were also able to bind the hCD37-M45 variant. […] In contrast, the CD37-3, CD37-12, CD37-38, CD37-56 and CD37-57 antibodies require at least one of the AA residues in the hCD37-M45 variant that were changed to the corresponding murine AA residues for binding to the CD37 antigen.

hCD37-M45 = target: T4, hCD37-M45 (human/murine chimera, UniProt P11049 1-281); assay: flow cytometry, 300-19 cells expressing hCD37-M45
T4 construct: stably expressed on 300-19 cells; also called hCD37-M45 variant
T4 chain: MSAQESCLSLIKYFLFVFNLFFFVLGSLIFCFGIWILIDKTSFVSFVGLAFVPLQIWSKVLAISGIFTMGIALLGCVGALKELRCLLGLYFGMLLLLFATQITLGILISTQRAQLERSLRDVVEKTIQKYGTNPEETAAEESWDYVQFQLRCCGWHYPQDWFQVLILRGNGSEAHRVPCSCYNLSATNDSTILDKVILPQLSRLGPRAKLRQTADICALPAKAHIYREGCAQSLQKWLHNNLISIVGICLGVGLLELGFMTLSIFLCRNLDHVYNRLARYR
Description: as §1, §2

hCD37-M3 = target: T5, hCD37-M3 (human/murine chimera, UniProt P11049 1-281); assay: flow cytometry, 300-19 cells expressing hCD37-M3, 1.5 µg/mL antibody
T5 construct: stably expressed on 300-19 cells; also called hCD37-M3 variant
T5 chain: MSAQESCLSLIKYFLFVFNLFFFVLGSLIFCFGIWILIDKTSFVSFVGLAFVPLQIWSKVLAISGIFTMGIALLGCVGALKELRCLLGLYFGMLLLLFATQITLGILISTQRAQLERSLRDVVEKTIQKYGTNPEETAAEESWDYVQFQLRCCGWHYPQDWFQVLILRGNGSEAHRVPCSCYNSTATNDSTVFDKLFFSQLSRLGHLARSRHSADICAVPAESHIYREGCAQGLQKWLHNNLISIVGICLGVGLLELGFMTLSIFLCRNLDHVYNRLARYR
Description: as §1, §2

Kd (human CD37 [1]): 0.46 nM
B1: huCD37-3-SMCC-DM1 (antibody, human IgG1, kappa, V domains shown)
VH: QVQVQESGPGLVAPSQTLSITCTVSGFSLTTSGVSWVRQPPGKGLEWLGVIWGDGSTNYHPSLKSRLSIKKDHSKSQVFLKLNSLTAADTATYYCAKGGYSLAHWGQGTLVTVSS
VL: DIQMTQSPSSLSVSVGERVTITCRASENIRSNLAWYQQKPGKSPKLLVNVATNLADGVPSRFSGSGSGTDYSLKINSLQPEDFGTYYCQHYWGTTWTFGQGTKLEIKR
modifications: DM1 attached through SMCC linker; attachment residues not stated; 3.5-4 DM1 per antibody
notes: heavy chain version as for huCD37-3, see its note
EC50 of in vitro cytotoxicity, BJAB cells (human CD37 [2]): 0.041 nM and 0.019 nM
EC50 of in vitro cytotoxicity, Daudi cells (human CD37 [2]): 0.065 nM and 0.036 nM
EC50 of in vitro cytotoxicity, Namalwa cells (human CD37 [2]): 0.033 nM
EC50 of in vitro cytotoxicity, Raji cells (human CD37 [2]): 0.071 nM
EC50 of in vitro cytotoxicity, Raji-VCR cells (human CD37 [2]): 0.11 nM
EC50 of in vitro cytotoxicity, Ramos cells (human CD37 [2]): 0.16 nM
EC50 of in vitro cytotoxicity, SU-DHL-4 cells (human CD37 [2]): 0.031 nM
EC50 of in vitro cytotoxicity, WST-8 assay, Daudi cells (human CD37 [2]): 0.067 nM
EC50 of in vitro cytotoxicity, WST-8 assay, Granta-519 cells (human CD37 [2]): 0.047 nM

Kd (human CD37 [1]): 0.56 nM
B2: huCD37-3-SPP-DM1 (antibody, human IgG1, kappa, V domains shown)
VH: B1 VH
VL: B1 VL
modifications: DM1 attached through SPP linker; attachment residues not stated; 3.5-4 DM1 per antibody
notes: as for B1
EC50 of in vitro cytotoxicity, BJAB cells (human CD37 [2]): 0.11 nM
EC50 of in vitro cytotoxicity, Daudi cells (human CD37 [2]): 0.12 nM
EC50 of in vitro cytotoxicity, Granta-519 cells (human CD37 [2]): 0.13 nM

Kd (human CD37 [1]): 0.89 nM
B3: huCD37-3-sulfo-mal-DM4 (antibody, human IgG1, kappa, V domains shown)
VH: B1 VH
VL: B1 VL
modifications: DM4 attached through 3-sulfo-mal linker; attachment residues not stated; 3.5-4 DM4 per antibody
notes: as for B1
EC50 of in vitro cytotoxicity, BJAB cells (human CD37 [2]): 0.11 nM
EC50 of in vitro cytotoxicity, Daudi cells (human CD37 [2]): 0.14 nM
EC50 of in vitro cytotoxicity, Granta-519 cells (human CD37 [2]): 0.088 nM

Kd (human CD37 [3]): 0.2 nM
binding result (macaque CD37): no binding
Kd (human CD37 [1]): 0.26 nM
Kd (human CD37 [4]): 0.28 nM
B4: huCD37-3 (antibody, human IgG1, kappa, V domains shown)
VH: B1 VH
VL: B1 VL
notes: also called huCD37-3 Ab; huCD37-3 antibody

EC50 (human CD37 [5]): 1 nM
B5: huCD37-3v1.0 (antibody, human IgG1, kappa, V domains shown)
VH: B1 VH
VL: B1 VL
notes: Resurfaced (humanized) CD37-3, version 1.0

EC50 (human CD37 [5]): 0.6 nM
B6: huCD37-3v1.01 (antibody, human IgG1, kappa, V domains shown)
VH: B1 VH with P61S
VL: B1 VL
notes: also called huCD37-3v1.1

Kd (human CD37 [3]): 0.4 nM
binding result (macaque CD37): binds
binding result (hCD37-M1): binds
binding result (hCD37-M45): no binding (tested: 1.5 µg/mL)
binding result (hCD37-M3): binds
B7: muCD37-38 (antibody, mouse IgG1, kappa, V domains shown)
VH: DVQLQESGPDLVKPSQSLSLTCTVTGYSITSGFGWHWIRQFPGNKLEWMAYILYSGGTDYNPSLKSRISITRDTSKNQFFLRLSSVTTEDTATYYCARGYYGYGAWFVYWGQGTLVTVSA
VL: QIVLTQSPAIMSASPGEKVTMTCSASSSVTYMHWYQQKSGTSPKRWIYDTSKLASGVPARFSGGGSGTSYSLTISSMEAEDAATYYCQQWISNPPTFGGGTKLEIKR
notes: Murine hybridoma antibody

Kd (human CD37 [3]): 1 nM
binding result (macaque CD37): binds
binding result (hCD37-M1): binds
binding result (hCD37-M45): no binding (tested: 1.5 µg/mL)
binding result (hCD37-M3): binds
B8: muCD37-57 (antibody, mouse IgG2a, kappa, V domains shown)
VH: B7 VH with V12L, G34A, A50G, G57S, D59V, N61S, R82Q, S84N, V108A
VL: B7 VL with S26T, G64S, I91S, S92D, G99S
notes: Murine hybridoma antibody

Kd (human CD37 [3]): 0.4 nM
binding result (macaque CD37): binds
binding result (hCD37-M1): binds
binding result (hCD37-M45): no binding (tested: 1.5 µg/mL)
binding result (hCD37-M3): binds
B9: muCD37-56 (antibody, mouse IgG1, kappa, V domains shown)
VH: B7 VH with G34A, A50G, L53H, D59N, I68V, R82Q, S84N, Y103F, V108A, T117P
VL: B7 VL with I10F, E17D, S76T, N93D
notes: Murine hybridoma antibody

Reference: patent publication US20110256153A1 (IMMUNOGEN, published 2011)
